Source: patent US20150045540A1 (published 2015)

T1: Placenta Growth Factor (PlGF), human (human, UniProt P49763 21-149)
T1 chain: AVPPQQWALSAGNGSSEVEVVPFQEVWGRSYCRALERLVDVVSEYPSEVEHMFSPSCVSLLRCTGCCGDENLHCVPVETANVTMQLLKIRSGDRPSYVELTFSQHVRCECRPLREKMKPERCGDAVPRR


Experiments:
[1] = molecular target: T1, Placenta Growth Factor (PlGF), human; assay: ELISA
[2] = molecular target: Hepatocyte Growth Factor (HGF), human (human, UniProt P14210 32-728); assay: ELISA
Sequence of Hepatocyte Growth Factor (HGF), human (P14210 32-728): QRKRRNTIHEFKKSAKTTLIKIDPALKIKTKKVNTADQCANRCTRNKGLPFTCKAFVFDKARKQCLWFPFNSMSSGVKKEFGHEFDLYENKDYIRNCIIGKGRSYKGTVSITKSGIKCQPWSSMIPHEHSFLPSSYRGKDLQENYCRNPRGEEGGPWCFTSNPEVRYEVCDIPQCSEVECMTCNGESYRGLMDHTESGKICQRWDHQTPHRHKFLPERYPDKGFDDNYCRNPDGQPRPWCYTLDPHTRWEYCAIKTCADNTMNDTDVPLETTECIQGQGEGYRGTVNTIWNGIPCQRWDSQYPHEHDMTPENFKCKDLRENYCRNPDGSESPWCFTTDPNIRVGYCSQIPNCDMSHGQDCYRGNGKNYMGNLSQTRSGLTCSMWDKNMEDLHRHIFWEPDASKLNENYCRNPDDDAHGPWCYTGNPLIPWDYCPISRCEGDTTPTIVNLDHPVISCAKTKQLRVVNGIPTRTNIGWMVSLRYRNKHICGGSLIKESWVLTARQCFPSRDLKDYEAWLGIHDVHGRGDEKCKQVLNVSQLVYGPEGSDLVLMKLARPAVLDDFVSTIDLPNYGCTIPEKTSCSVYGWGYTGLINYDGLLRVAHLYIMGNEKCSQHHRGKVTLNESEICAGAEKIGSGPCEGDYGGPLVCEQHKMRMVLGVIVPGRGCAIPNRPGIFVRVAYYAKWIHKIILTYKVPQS

EC50 [1]	EC50 [2]	Binder
0.164 nM	0.063 nM	HC 9/SLC 4 (antibody) chain 1: GQGTLVTVSSASTKGPSVFQPVLHQPPAMSSALGTTIRLTCTLRNDHDIGVYSVYWYQQRPGHPPRFLLRYFSQSDKSQGPQVPPRFSGSKDVARNRGYLSISELQPEDEAMYYCAMGARSRCWPRGFQSKHNSVTHVFGSGTQLTVLSQPKATPSVTLFPPSSEELQANKATLVCLMNDFYPGILTVTWKADGTPITQGVEMTTPSKQSNNKYAASSYLSLTPEQWRSRRSYSCQVMHEGSTVEKTVAPAECS chain 2: MSWAPVLLMLFVYCTGCGPQPVLHQPPAMSSALGTTIRLTCTLRNDHDIGVYSVYWYQQRPGHPPRFLLRYFSQSDKSQGPQVPPRFSGSKDVARNRGYLSISVTHVFGSGTQLTVLSQPKQVQLVQ
0.128 nM	0.061 nM	HC 8/SLC 6 (antibody) chain 1: GQGTLVTVSSASTKGPSVQPVLHQPPAMSSALGTTIRLTCTLRNDHDIGVYSVYWYQQRPGHPPRFLLRYFSQSDKSQGPQVPPRFSGSKDVARNRGYLSISELQPEDEAMYYCAMGARSRCWPRGFQSKHNSVTHVFGSGTQLTVLSQPKATPSVTLFPPSSEELQANKATLVCLMNDFYPGILTVTWKADGTPITQGVEMTTPSKQSNNKYAASSYLSLTPEQWRSRRSYSCQVMHEGSTVEKTVAPAECS chain 2: MSWAPVLLMLFVYCTGCGPQPVLHQPPAMSSALGTTIRLTCTLRNDHDIGVYSVYWYQQRPGHPPRFLLRYFSQSDKSQGPQVPPRFSGSKDVARNRGYLSISVTHVFGSGTQLTVLSQPKATQVQLVQ
0.05 nM	0.048 nM	HC 8/SLC 15 (antibody) chain 1: GQGTLVTVSSASTKGPSVQPVLHQPPAMSSALGTTIRLTCTLRNDHDIGVYSVYWYQQRPGHPPRFLLRYFSQSDKSQGPQVPPRFSGSKDVARNRGYLSISELQPEDEAMYYCAMGARSRCWPRGFQSKHNSVTHVFGSGTQLTVLSQPKATPSVTLFPPSSEELQANKATLVCLMNDFYPGILTVTWKADGTPITQGVEMTTPSKQSNNKYAASSYLSLTPEQWRSRRSYSCQVMHEGSTVEKTVAPAECS chain 2: MSWAPVLLMLFVYCTGCGPQPVLHQPPAMSSALGTTIRLTCTLRNDHDIGVYSVYWYQQRPGHPPRFLLRYFSQSDKSQGPQVPPRFSGSKDVARNRGYLSISVTHVFGSGTQLTVLSQPKATPSVTGGGGSQVQLVQ
0.16 nM	0.069 nM	HC 6/SLC 3 (antibody) chain 1: GQGTLVTVSSASTKGPQPVLHQPPAMSSALGTTIRLTCTLRNDHDIGVYSVYWYQQRPGHPPRFLLRYFSQSDKSQGPQVPPRFSGSKDVARNRGYLSISELQPEDEAMYYCAMGARSRCWPRGFQSKHNSVTHVFGSGTQLTVLSQPKATPSVTLFPPSSEELQANKATLVCLMNDFYPGILTVTWKADGTPITQGVEMTTPSKQSNNKYAASSYLSLTPEQWRSRRSYSCQVMHEGSTVEKTVAPAECS chain 2: MSWAPVLLMLFVYCTGCGPQPVLHQPPAMSSALGTTIRLTCTLRNDHDIGVYSVYWYQQRPGHPPRFLLRYFSQSDKSQGPQVPPRFSGSKDVARNRGYLSISVTHVFGSGTQLTVLSQPQVQLVQ
0.083 nM	0.056 nM	HC 6/SLC 7 (antibody) chain 1: GQGTLVTVSSASTKGPQPVLHQPPAMSSALGTTIRLTCTLRNDHDIGVYSVYWYQQRPGHPPRFLLRYFSQSDKSQGPQVPPRFSGSKDVARNRGYLSISELQPEDEAMYYCAMGARSRCWPRGFQSKHNSVTHVFGSGTQLTVLSQPKATPSVTLFPPSSEELQANKATLVCLMNDFYPGILTVTWKADGTPITQGVEMTTPSKQSNNKYAASSYLSLTPEQWRSRRSYSCQVMHEGSTVEKTVAPAECS chain 2: MSWAPVLLMLFVYCTGCGPQPVLHQPPAMSSALGTTIRLTCTLRNDHDIGVYSVYWYQQRPGHPPRFLLRYFSQSDKSQGPQVPPRFSGSKDVARNRGYLSISVTHVFGSGTQLTVLSQPKATPQVQLVQ
0.136 nM	0.078 nM	HC 9/SLC 3 (antibody) chain 1: GQGTLVTVSSASTKGPSVFQPVLHQPPAMSSALGTTIRLTCTLRNDHDIGVYSVYWYQQRPGHPPRFLLRYFSQSDKSQGPQVPPRFSGSKDVARNRGYLSISELQPEDEAMYYCAMGARSRCWPRGFQSKHNSVTHVFGSGTQLTVLSQPKATPSVTLFPPSSEELQANKATLVCLMNDFYPGILTVTWKADGTPITQGVEMTTPSKQSNNKYAASSYLSLTPEQWRSRRSYSCQVMHEGSTVEKTVAPAECS chain 2: MSWAPVLLMLFVYCTGCGPQPVLHQPPAMSSALGTTIRLTCTLRNDHDIGVYSVYWYQQRPGHPPRFLLRYFSQSDKSQGPQVPPRFSGSKDVARNRGYLSISVTHVFGSGTQLTVLSQPQVQLVQ
0.188 nM	0.053 nM	HC 4/SLC 2 (antibody) chain 1: GQGTLVTVSSASTKQPVLHQPPAMSSALGTTIRLTCTLRNDHDIGVYSVYWYQQRPGHPPRFLLRYFSQSDKSQGPQVPPRFSGSKDVARNRGYLSISELQPEDEAMYYCAMGARSRCWPRGFQSKHNSVTHVFGSGTQLTVLSQPKATPSVTLFPPSSEELQANKATLVCLMNDFYPGILTVTWKADGTPITQGVEMTTPSKQSNNKYAASSYLSLTPEQWRSRRSYSCQVMHEGSTVEKTVAPAECS chain 2: MSWAPVLLMLFVYCTGCGPQPVLHQPPAMSSALGTTIRLTCTLRNDHDIGVYSVYWYQQRPGHPPRFLLRYFSQSDKSQGPQVPPRFSGSKDVARNRGYLSISVTHVFGSGTQLTVLSQQVQLVQ
0.147 nM	0.06 nM	HC 4/SLC 3 (antibody) chain 1: GQGTLVTVSSASTKQPVLHQPPAMSSALGTTIRLTCTLRNDHDIGVYSVYWYQQRPGHPPRFLLRYFSQSDKSQGPQVPPRFSGSKDVARNRGYLSISELQPEDEAMYYCAMGARSRCWPRGFQSKHNSVTHVFGSGTQLTVLSQPKATPSVTLFPPSSEELQANKATLVCLMNDFYPGILTVTWKADGTPITQGVEMTTPSKQSNNKYAASSYLSLTPEQWRSRRSYSCQVMHEGSTVEKTVAPAECS chain 2: MSWAPVLLMLFVYCTGCGPQPVLHQPPAMSSALGTTIRLTCTLRNDHDIGVYSVYWYQQRPGHPPRFLLRYFSQSDKSQGPQVPPRFSGSKDVARNRGYLSISVTHVFGSGTQLTVLSQPQVQLVQ
0.181 nM	0.061 nM	HC 10/SLC 5 (antibody) chain 1: GQGTLVTVSSASTKGPSVFPQPVLHQPPAMSSALGTTIRLTCTLRNDHDIGVYSVYWYQQRPGHPPRFLLRYFSQSDKSQGPQVPPRFSGSKDVARNRGYLSISELQPEDEAMYYCAMGARSRCWPRGFQSKHNSVTHVFGSGTQLTVLSQPKATPSVTLFPPSSEELQANKATLVCLMNDFYPGILTVTWKADGTPITQGVEMTTPSKQSNNKYAASSYLSLTPEQWRSRRSYSCQVMHEGSTVEKTVAPAECS chain 2: MSWAPVLLMLFVYCTGCGPQPVLHQPPAMSSALGTTIRLTCTLRNDHDIGVYSVYWYQQRPGHPPRFLLRYFSQSDKSQGPQVPPRFSGSKDVARNRGYLSISVTHVFGSGTQLTVLSQPKAQVQLVQ
0.172 nM	0.065 nM	HC 9/SLC 5 (antibody) chain 1: GQGTLVTVSSASTKGPSVFQPVLHQPPAMSSALGTTIRLTCTLRNDHDIGVYSVYWYQQRPGHPPRFLLRYFSQSDKSQGPQVPPRFSGSKDVARNRGYLSISELQPEDEAMYYCAMGARSRCWPRGFQSKHNSVTHVFGSGTQLTVLSQPKATPSVTLFPPSSEELQANKATLVCLMNDFYPGILTVTWKADGTPITQGVEMTTPSKQSNNKYAASSYLSLTPEQWRSRRSYSCQVMHEGSTVEKTVAPAECS chain 2: MSWAPVLLMLFVYCTGCGPQPVLHQPPAMSSALGTTIRLTCTLRNDHDIGVYSVYWYQQRPGHPPRFLLRYFSQSDKSQGPQVPPRFSGSKDVARNRGYLSISVTHVFGSGTQLTVLSQPKAQVQLVQ
